Measured values reported in US20140161803A1 (IFOM Fondazione Istituo FIRC di Oncologia Molecolare, priority 2011, published 2014).

Test system: PC-3 cells
Test: PC3 prostate cancer xenograft tumor growth
Assay type: in vivo, Balb C nu/nu mice
Settings: 10.0 mg/kg i.p. bi-weekly; s.c. PC-3 xenograft; versus control animals
Description: Male Balb C nu/nu mice were inoculated with (1×10^6) PC-3 cells through the subcutaneous (s.c.) route. […] Tumors were measured twice weekly, and tumor volume was determined as described in Materials and Methods.
Six-week-old male Balb C nu/nu mice were obtained from Charles River. Before inoculation, PC-3 cells growing in serum-containing medium were washed with phosphate buffered saline (PBS), harvested by trypsinization, and pelleted at 1200 rpm for 7 minutes. Cells (1.0×10^6) were resuspended in 200 μl of PBS with 20% Matrigel. Animals were anesthetized by intraperitoneal (i.p.) injection of Avertin and 1.0×10^6 cells were inoculated subcutaneously (s.c.) using a 26-gauge needle into the right flank of anesthetized mice. […] The animals were monitored twice a week for 7 weeks for tumor development and growth. Tumor volume was determined according to the formula: tumor volume=shorter diameter^2×longer diameter/2. […] Results were analyzed as the mean±SE, and comparisons of the experimental data were analyzed by unpaired, two-tailed, equal variance, t-test.
In this model, one million PC3 cells were inoculated in the right flank of male Balb C nu/nu mice through subcutaneous route.

B1: 13F6: non-inhibitory monoclonal anti-uPAR antibody raised against GFDuPAR-hFc; IgG1 κ (antibody, V domains shown)
VH: ELVKPGASVELSCKASGYTFTSYWMNWVKQRPGRGLEWIGRIAPNSGGTQYSGKFKTKATLTVDKSSSTAYMQLSSLTSEDSAVYYCARGDYFGHFDYWGQGTTLTVS
VL: SLSASLGGKVTITCKASQDINNYIAWYQHKPGKGPRLLIHYTSILQPGIPSRFSGSGSGRDYSFSISNLEPEDIATYYCLQCDNLLTFGAGTKLELK
effect on tumor volume: A similar inhibition was not observed
